Measured values as given in paper PMC5823908, “Human mitochondrial pyruvate carrier 2 as an autonomous membrane transporter” (Scientific Reports, 2018).

Target: the molecule itself
Test: cross-linking; purified MPC2-detergent (DDM) complex, about 10 μg protein, DSS 0.2-4 mM, 30 min, room temperature, 20 mM HEPES pH 8.0, 300 mM NaCl, 5% glycerol, 0.05 mM TCEP, 0.03% DDM

B1: purified human MPC2 after removal of GFP-10xHis (natural protein, UniProt O95563 1-127, looked up)
chain: MSAAGARGLRATYHRLLDKVELMLPEKLRPLYNHPAGPRTVFFWAPIMKWGLVCAGLADMARPAEKLSTAQSAVLMATGFIWSRYSLVIIPKNWSLFAVNFFVGAAGASQLFRIWRYNQELKAKAHK
notes: human mitochondrial pyruvate carrier 2 (MPC2), codon-optimized synthetic gene, NCBI NP_001137146.1; Residues of the PreScission site probably stay at the C-terminus after cleavage; also called purified MPC2; MPC2-detergent (DDM) complex; source: S. cerevisiae lacking endogenous MPC (3Δ); extracted with 1% C12E8, purified by Co-IMAC, PreScission Protease removal of GFP-10xHis, gel filtration in …
  stoichiometry N: 2
